Experimental data from patent US20100329980A1 (GENE TECHNO SCIENCE, published 2010).
Ends that are not written are not given here.

What was measured:
human α4 integrin [1] = target: T1, human α4 integrin (human, UniProt P13612 34-1032); test: hybridoma screening on transfected CHO-K1 cells
T1 construct: whole, on cells; also called Human α4/CHO-K1 cells; CHO K1 cells expressing human α4 integrin
T1 sequence (looked up): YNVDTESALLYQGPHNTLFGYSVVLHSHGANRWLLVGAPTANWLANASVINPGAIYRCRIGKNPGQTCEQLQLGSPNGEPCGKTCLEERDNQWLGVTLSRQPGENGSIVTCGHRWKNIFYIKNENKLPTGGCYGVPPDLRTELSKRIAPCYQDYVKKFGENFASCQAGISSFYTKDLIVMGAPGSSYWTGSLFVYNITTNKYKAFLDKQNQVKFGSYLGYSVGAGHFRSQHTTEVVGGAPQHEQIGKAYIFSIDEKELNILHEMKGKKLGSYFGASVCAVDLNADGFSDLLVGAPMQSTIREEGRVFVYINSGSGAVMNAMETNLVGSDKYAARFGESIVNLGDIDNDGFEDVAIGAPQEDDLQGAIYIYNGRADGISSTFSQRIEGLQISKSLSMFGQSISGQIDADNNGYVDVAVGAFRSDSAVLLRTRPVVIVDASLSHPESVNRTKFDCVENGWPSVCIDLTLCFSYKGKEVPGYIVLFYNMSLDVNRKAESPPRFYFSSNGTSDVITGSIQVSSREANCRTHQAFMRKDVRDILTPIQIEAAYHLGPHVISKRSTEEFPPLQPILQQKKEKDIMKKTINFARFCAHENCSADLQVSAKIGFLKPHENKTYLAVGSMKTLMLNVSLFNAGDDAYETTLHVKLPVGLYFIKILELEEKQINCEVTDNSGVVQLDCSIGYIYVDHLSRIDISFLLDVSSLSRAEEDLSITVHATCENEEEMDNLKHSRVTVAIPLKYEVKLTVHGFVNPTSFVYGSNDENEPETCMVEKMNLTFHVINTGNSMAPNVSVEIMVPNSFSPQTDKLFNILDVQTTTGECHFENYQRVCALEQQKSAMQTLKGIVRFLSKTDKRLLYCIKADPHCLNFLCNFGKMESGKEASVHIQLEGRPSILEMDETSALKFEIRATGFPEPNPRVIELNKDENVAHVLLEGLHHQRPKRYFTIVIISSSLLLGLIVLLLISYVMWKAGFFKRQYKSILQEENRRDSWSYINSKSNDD

[2] = target: T2, Human α9 integrin sequence QYSMKLSGQKINPVLRMFGQSISG (SEQ ID NO: 85) (human, coupled to a cellulose membrane via C6-spacer and 2 βAla residues); test: peptide spot membrane, peroxidase-labelled antibody, ECL
T2 construct: Spots were twelve-residue peptides offset by three residues
T2 peptide: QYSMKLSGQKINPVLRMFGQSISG
Method: (§1) Twelve-residue polypeptides, starting from N-terminal of human α9 integrin and every three residues thereafter (i.e., amino acid residues 1-12, 4-15, 7-18, and so forth) were prepared and coupled to a cellulose membrane via C6-spacer and 2 βAla residues at 5 nmol/spot. The membrane was blocked with a blocking buffer (milk/0.05% Tween20 in PBS) and reacted with 10 ml of solution containing 1.0 μg/ml of each of the anti-human α9 integrin monoclonal antibodies (i.e., 1K11, 21C5, 24I11 and 25 B6, respectively) labeled with peroxidase for three hours at room temperature. After washing with T-TBS, the membrane was reacted with enhanced chemiluminescence (ECL) detecting reagent for 1 minute at room temperature. The luminescence emitted as a result of the enzymatic reaction is measured and epitopes of the antibodies were determined based on the luminescence intensities. As a control, Y9A2 (see Wang et al., 1996, Am J Respir Cell Mol Biol 15, 664-672), a commercially available monoclonal antibody against human α9 integrin, was used.

[3] = target: T3, Human α9 integrin sequence … (SEQ ID NO: 86) (human, coupled to a cellulose membrane via C6-spacer and 2 βAla residues); test: as above
T3 construct: Spots were twelve-residue peptides offset by three residues
Method: as §1

[4] = target: T4, Human α9 integrin sequence RHYVAHVKRRVQDVISPI (SEQ ID NO: 87) (human, also: coupled to cellulose membrane via C6-spacer and 2 βAla, end not given here); test: as above
T4 construct: Spots were twelve-residue peptides offset by three residues
T4 peptide: RHYVAHVKRRVQDVISPI
Method: as §1

[5] = target: T5, Human α9 integrin sequence VMGAPGSFYWAGTIKVLN (SEQ ID NO: 82) (human, also: coupled to cellulose membrane via C6-spacer and 2 βAla, end not given here); test: as above
T5 construct: Spots were twelve-residue peptides offset by three residues
T5 peptide: VMGAPGSFYWAGTIKVLN
Method: as §1

[6] = target: T6, Human α9 integrin sequence YLALGAVKNISL (SEQ ID NO: 89) (human, also: coupled to cellulose membrane via C6-spacer and 2 βAla (end not given here)); test: as above
T6 construct: Spots were twelve-residue peptides offset by three residues
T6 peptide: YLALGAVKNISL
Method: as §1

[7] = target: T7, Human α9 integrin sequence … (SEQ ID NO: 84) (human, coupled to a cellulose membrane via C6-spacer and 2 βAla residues); test: as above
T7 construct: Spots were twelve-residue peptides offset by three residues
Method: as §1

[8] = target: T8, Human α9 integrin sequence GFCYIIPSNLQAKGRTLI (SEQ ID NO: 81) (human, also: coupled to cellulose membrane via C6-spacer and 2 βAla, end not given here); test: as above
T8 construct: Spots were twelve-residue peptides offset by three residues
T8 peptide: GFCYIIPSNLQAKGRTLI
Method: as §1

[9] = target: T9, Human α9 integrin sequence VIMNRRYTYLGYAVT (SEQ ID NO: 83) (human, also: coupled to cellulose membrane via C6-spacer and 2 βAla, end not given here); test: as above
T9 construct: Spots were twelve-residue peptides offset by three residues
T9 peptide: VIMNRRYTYLGYAVT
Method: as §1

[10] = target: T10, Human α9 integrin sequence KSPGAVFKCRVHTNPDRR (SEQ ID NO: 78) (human, also: coupled to cellulose membrane via C6-spacer and 2 βAla, end not given here); test: as above
T10 construct: Spots were twelve-residue peptides offset by three residues
T10 peptide: KSPGAVFKCRVHTNPDRR
Method: as §1

[11] = target: T11, Human α9 integrin sequence SSSVIQFMSRAKVKVDPALRV (SEQ ID NO: 91) (human, coupled to a cellulose membrane via C6-spacer and 2 βAla residues); test: as above
T11 construct: Spots were twelve-residue peptides offset by three residues
T11 peptide: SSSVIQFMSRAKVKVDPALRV
Method: as §1

[12] = target: T12, Human α9 integrin sequence … (SEQ ID NO: 79) (human, coupled to a cellulose membrane via C6-spacer and 2 βAla residues); test: as above
T12 construct: Spots were twelve-residue peptides offset by three residues
Method: as §1

[13] = target: T13, Human α9 integrin sequence CSVGFPFMRSKSKYEFSV (SEQ ID NO: 90) (human, also: coupled to cellulose membrane via C6-spacer and 2 βAla, end not given here); test: as above
T13 construct: Spots were twelve-residue peptides offset by three residues
T13 peptide: CSVGFPFMRSKSKYEFSV
Method: as §1

[14] = target: T14, Human α9 integrin sequence CAHRWKNIYYEADHI (SEQ ID NO: 80) (human, also: coupled to cellulose membrane via C6-spacer and 2 βAla, end not given here); test: as above
T14 construct: Spots were twelve-residue peptides offset by three residues
T14 peptide: CAHRWKNIYYEADHI
Method: as §1

human α4 integrin [15] = target: T1, human α4 integrin; test: FACS, FITC-labeled anti-mouse IgG secondary
Method: Whether the anti-human α9 integrin antibodies were usable for FACS was examined using Human α9/CHO-K1 cells, CHO-K1 cells and human neutrophils endogenously expressing the α9 integrin. In human neutrophils, FACS analysis was conducted at the cell count of 1.0×10⁵ and antibodies were reacted on ice. Non-specific reaction with the Fc receptor was blocked with 50% goat serum. FITC-labeled anti-mouse IgG antibody was used as a secondary antibody. As a result (see FIGS. 20a, 20b and 20c), all of the anti-human α9 integrin antibodies could detect the α9 integrin on Human α9/CHO-K1 and human neutrophils. None of the antibodies reacted with Human α4/CHO-K1 cells (see FIGS. 20a, 20b and 20c).

B1: 1K11 mouse anti-human α9 integrin monoclonal antibody (FERM BP-10510) (antibody, mouse IgG1, V domains shown)
VH: VQLQESGPELVKPGASVKIPCKASGYTFTDYNMDWVKQSHGKSLEWIGDINPNNGGTIYNQKFQGKATLTVDKSSSTAYMELRSLTSEDTAVYYCARSGVISTDYWGQGTTVTVSS
VL: DIQMTQSPPSLSASLGERVSLTCRASQEISGYLIWLQQKPDGTIQRLIYAASTLDSGVPKRFSGSRSGSDYSLTISSLESEDFADYYCLQYANYPPTFGGGTKLEIKR
notes: Mouse IgG1 from hybridoma
- binding result (human α4 integrin [1]): no binding
- binding result [2]: binds
- binding result [3]: binds
- binding result [4]: binds
- binding result [5]: binds
- binding result [6]: binds
- binding result [7]: binds
- binding result [8]: binds
- binding result [9]: binds
- binding result [10]: binds
- binding result [11]: binds
- binding result [12]: binds
- binding result [13]: binds
- binding result [14]: binds

B2: 28S1 mouse anti-human α9 integrin monoclonal antibody (FERM BP-10832) (antibody, mouse IgG1, V domains shown)
VH: VKLQESGPGLVAPSQSLSITCTVSGFSLTGYGVNWVRQPPGKGLEWLGMIWGDGITEYNSALKSRLSISKDNSKSQVFLKMNSLQTDDTARYYCARDASSGYGFAYWGQGTTVTVSS
VL: YIVLTQSPAIMSASLGERVTMTCTASSSVSSSYLHWYQQKPGSSPKLWIYSTSNLASGVPARFSGSGSGTSYSLTISSMEAEDAATYYCHQYHRSPYTFGGGTKLEIKR
notes: Mouse IgG1 from hybridoma
- binding result (human α4 integrin [15]): no binding

B3: 21C5 mouse anti-human α9 integrin monoclonal antibody (FERM BP-10511) (antibody, mouse IgG1, V domains shown)
VH: VQLQESGGGLVKPGGSLKLSCAASGFTFSDYYMYWVRQTPEKRLEWVATISDGGNYTYYPDSVKGRFTISRDNAKNNLYLQMSSLKSEDTAMYYCARDRDGSSLFAYWGQGTTVTVSS
VL: KFMSTSVGDRVSITCKASQDVNIAVAWYQQRPGQSPKLLIYWASTRHTGVPDRFTGSGSGTDYTLTISSVQAEDLALYYCQQHYNTPWTFGGGTKLEIKR
notes: Mouse IgG1 from hybridoma; cloned with degenerate primers
- binding result (human α4 integrin [1]): no binding

B4: 24I11 mouse anti-human α9 integrin monoclonal antibody (FERM BP-10512) (antibody, mouse IgG1, V domains shown)
VH: EVQLQQSGAELVKPGASVKLSCTASGFNIKDTYVHWVKQRPEQGLEWIGNIDPANGNTKYDPKFQGKATITADTSSNTAYLHLSSLTSEDTAVYYCARWLRHFYYAMDYWGQGTSVTVSS
VL: DIQMTQSPASLAASVGETVTITCRASENIYYSLAWYQQKQGKSPQLLIYNANSLEDGVPSRFSGSGSGTQYSMKINSMQPEDTATYFCKQAYDVPYTFGGGTKLEIK
notes: Mouse IgG1/kappa from hybridoma; also called mouse 24I11
- binding result [4]: binds
- binding result [5]: binds
- binding result [7]: binds
- binding result [8]: binds
- binding result [9]: binds
- binding result [10]: binds
- binding result [11]: binds
- binding result [12]: binds
- binding result [13]: binds
- binding result [14]: binds
- binding result (human α4 integrin [15]): no binding
